Drawing on article PMC3293900, “Single Cycle Structure-Based Humanization of an Anti-Nerve Growth Factor Therapeutic Antibody” (PLoS ONE, 2012), this text covers Ka and Kd for 2 molecules.

Test [1] has as its target T1, human Nerve Growth Factor (Homo sapiens, UniProt P01138).
T1 construct: human Nerve Growth Factor (beta-NGF), mature growth factor; also called hNGF; human NGF; source: obtained according to Covaceuszach et al. [77]
The test can be described thus: SPR; BIACore; hNGF amine-coupled on CM5 chips (89, 93, 100 RU); Fab hum-αD11 0.39-25 nM injected in HBSEP pH 7.4 with 100 µg/ml BSA, 50 µl/min; triplicate; apparent constants. The note with it: both partners purified.

The target in test [2] is T1, human Nerve Growth Factor. The test can be described thus: SPR; BIACore; rat mAb αD11 amine-coupled on CM5 chips (1025, 1040, 1280 RU); hNGF 0.29-37.5 nM injected in PBS with 0.005% Surfactant P20, 30 µl/min; triplicate; apparent constants. To be noted: both partners purified.

T1 sequence (P01138 122-241): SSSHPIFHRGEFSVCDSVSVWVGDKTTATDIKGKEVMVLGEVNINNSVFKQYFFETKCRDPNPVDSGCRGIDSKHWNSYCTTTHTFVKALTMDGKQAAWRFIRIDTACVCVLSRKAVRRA

B1: Fab fragment of the humanized anti-NGF antibody hum-αD11 (Fab, V domains shown)
VH: EVQLVESGGGLVQPGGSLRLSCAASGFSLTNNNVNWVRQAPGKGLEWVGGVWAGGATDYNSALKSRFTISRDNSKNTAYLQMNSLRAEDTAVYYCARDGGYSSSTLYAMDAWGQGTLVTVSS
VL: DIQMTQSPSSLSASVGDRVTITCRASEDIYNALAWYQQKPGKAPKLLIYNTDTLHTGVPSRFSGSGSGTDYTLTISSLQPEDFATYFCQHYFHYPRTFGQGTKVEIK
notes: as the VH of m3 (hum-αD11 VH); constant part of the Fab heavy chain; not described for the Fab provided by PanGenetics; as the Vκ of m3 (hum-αD11 Vκ); positions L46 and L87 mutated to the rat αD11 residue, Kabat numbering; constant part of the Fab light chain; also called Fab hum-αD11; source: kindly provided by PanGenetics UK Ltd
With B1, in test [1], the Ka is 3.4e+10 M⁻¹ and the Kd stood at 0.0289 ± 0.0041 nM.

B2: rat anti-NGF monoclonal antibody (mAb) αD11 (antibody, V domains shown)
VH: QVQLKESGPGLVQPSQTLSLTCTVSGFSLTNNNVNWVRQATGRGLEWMGGVWAGGATDYNSALKSRLTITRDTSKSQVFLKMHSLQSEDTATYYCARDGGYSSSTLYAMDAWGQGTTVTVSA
VL: DIQMTQSPASLSASLGETVTIECRASEDIYNALAWYQQKPGKSPQLLIYNTDTLHTGVPSRFSGSGSGTQYSLKINSLQSEDVASYFCQHYFHYPRTFGGGTKLELK
notes: VH of rat αD11; rat heavy chain constant region; the CH1 part is in PDB 1ZAN (Fab); light chain of rat αD11; whole light chain in PDB 1ZAN (Fab αD11); Whole rat IgG; also called parental mAb αD11; rat αD11
For B2, in test [2], the Ka was 2.21e+09 M⁻¹ and the Kd came out at 0.451 ± 0.045 nM.
